Among the data in patent publication US20120237978A1 are agonist affinity ([3H]-DHA competition binding with isoproterenol, Sf9 membranes), effect on agonist binding affinity compared with the β2AR-Gs complex and fraction of β2AR in the Ki high state ([3H]-DHA / isoproterenol competition, Sf9 membranes) values, retold here.

The test deals with β2AR part of the β2AR-Gs peptide fusion construct (receptor truncated at position 365) (human) (UniProt P07550). Nature of the test: cell-based or functional assay.

With “last 21 amino acids of the Gαs subunit (amino acids 374-394, except for C379A), as fused in the β2AR-Gs peptide fusion construct”, the agonist affinity ([3H]-DHA competition binding with isoproterenol, Sf9 membranes) amounted to 27 fold; the effect on agonist binding affinity compared with the β2AR-Gs complex is 3.5 fold; the fraction of β2AR in the Ki high state ([3H]-DHA / isoproterenol competition, Sf9 membranes) stood at 0.68.
